From patent US20250263467A1

Target: SARS-CoV-2 Spike protein on pseudotyped virus (SARS-CoV-2 (Wuhan-Hu-1)) (UniProt P0DTC2)
Assay: cell-based or functional assay

Substance	maximum neutralization, VSV pseudotype, 293T ACE2 cells [%]	maximum neutralization, VSV pseudotype, A549-ACE2-TMPRSS2 clone 10 cells [%]	maximum neutralization, VSV pseudotype, Huh7 cells [%]	maximum neutralization, VSV pseudotype, MRC5-ACE2-TMPRSS2 cells [%]	maximum neutralization, VSV pseudotype, Vero E6-TMPRSS2 cells [%]	maximum neutralization, VSV pseudotype, Vero E6 cells [%]	EC50, neutralization of pseudotyped virus [µg/mL]
S309 rIgG1-LS (antibody)	34	42	78	45	96	> 99	–
sotrovimab (antibody)	–	–	–	–	–	–	0.0241
